The record followed here is publication PMC6599478 (Mucosal immunology, 2019).

The target in the assay is recombinant full length Tenascin-C, large isoform (TNC-L) (human, UniProt P24821 23-2201). In words: ELISA. For orientation: ELISA stands for enzyme-linked immunosorbent assay.
recombinant full length Tenascin-C, large isoform (TNC-L), sequence (P24821 23-2201): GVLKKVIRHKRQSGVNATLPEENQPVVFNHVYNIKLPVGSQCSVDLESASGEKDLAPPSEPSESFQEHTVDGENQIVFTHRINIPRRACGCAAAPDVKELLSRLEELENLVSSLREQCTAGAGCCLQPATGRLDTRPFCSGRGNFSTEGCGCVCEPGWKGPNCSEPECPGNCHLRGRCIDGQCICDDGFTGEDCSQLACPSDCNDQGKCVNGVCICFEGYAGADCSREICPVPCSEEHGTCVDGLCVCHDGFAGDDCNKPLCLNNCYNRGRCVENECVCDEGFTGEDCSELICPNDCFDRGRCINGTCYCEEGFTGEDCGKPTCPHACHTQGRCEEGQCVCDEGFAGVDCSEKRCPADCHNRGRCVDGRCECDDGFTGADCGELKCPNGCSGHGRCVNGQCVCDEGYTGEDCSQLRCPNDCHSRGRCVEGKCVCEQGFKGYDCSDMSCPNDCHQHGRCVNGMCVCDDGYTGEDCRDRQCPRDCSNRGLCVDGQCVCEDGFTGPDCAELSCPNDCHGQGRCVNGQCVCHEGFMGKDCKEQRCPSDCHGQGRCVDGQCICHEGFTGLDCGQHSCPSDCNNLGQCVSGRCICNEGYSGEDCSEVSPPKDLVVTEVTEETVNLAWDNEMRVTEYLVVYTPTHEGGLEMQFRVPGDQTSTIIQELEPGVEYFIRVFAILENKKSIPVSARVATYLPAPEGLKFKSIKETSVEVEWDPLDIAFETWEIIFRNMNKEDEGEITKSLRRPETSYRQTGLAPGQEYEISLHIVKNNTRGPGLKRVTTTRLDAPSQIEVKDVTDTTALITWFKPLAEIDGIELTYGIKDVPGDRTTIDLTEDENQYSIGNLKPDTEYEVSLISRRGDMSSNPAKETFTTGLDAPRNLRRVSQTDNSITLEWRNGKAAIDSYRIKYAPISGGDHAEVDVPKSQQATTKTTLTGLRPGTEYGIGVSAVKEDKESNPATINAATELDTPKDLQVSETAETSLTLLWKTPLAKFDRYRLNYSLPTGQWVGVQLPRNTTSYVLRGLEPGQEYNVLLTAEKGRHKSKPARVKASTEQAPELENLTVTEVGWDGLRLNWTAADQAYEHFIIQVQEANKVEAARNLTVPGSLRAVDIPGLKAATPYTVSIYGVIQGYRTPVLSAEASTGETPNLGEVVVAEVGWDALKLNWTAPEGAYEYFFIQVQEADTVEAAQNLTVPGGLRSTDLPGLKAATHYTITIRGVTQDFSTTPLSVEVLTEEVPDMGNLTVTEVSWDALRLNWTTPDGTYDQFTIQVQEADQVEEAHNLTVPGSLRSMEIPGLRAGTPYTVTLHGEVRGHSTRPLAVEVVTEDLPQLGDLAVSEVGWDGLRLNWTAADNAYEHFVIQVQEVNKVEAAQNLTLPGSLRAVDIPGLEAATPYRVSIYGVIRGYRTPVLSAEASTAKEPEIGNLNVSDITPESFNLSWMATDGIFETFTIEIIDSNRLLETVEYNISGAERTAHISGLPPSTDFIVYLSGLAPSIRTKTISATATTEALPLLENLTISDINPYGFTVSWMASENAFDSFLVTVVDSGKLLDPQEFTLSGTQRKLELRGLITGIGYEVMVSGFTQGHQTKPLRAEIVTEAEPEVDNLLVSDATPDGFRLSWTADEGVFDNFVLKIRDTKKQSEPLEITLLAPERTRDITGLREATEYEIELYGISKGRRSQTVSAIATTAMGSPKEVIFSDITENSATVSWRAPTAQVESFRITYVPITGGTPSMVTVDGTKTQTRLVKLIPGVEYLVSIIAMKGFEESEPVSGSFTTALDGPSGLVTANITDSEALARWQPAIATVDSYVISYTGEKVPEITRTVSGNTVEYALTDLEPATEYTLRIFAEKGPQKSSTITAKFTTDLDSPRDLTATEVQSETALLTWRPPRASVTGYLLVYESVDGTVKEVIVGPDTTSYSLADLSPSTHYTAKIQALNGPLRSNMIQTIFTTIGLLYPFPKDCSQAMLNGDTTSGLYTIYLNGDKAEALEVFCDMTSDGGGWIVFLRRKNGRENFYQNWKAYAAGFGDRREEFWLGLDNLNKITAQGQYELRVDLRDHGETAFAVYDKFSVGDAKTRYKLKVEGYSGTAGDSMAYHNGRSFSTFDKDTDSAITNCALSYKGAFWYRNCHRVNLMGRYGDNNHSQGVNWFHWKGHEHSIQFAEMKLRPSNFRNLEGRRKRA
Take TRPNYNKRKRIHIGPGRAFYTTKNIIGTIRQAH [MN V3 complete V3 loop peptide (33 amino acid linear peptide, wild type)]: the binding result is “binds”.

In the case of TRPNYNKRKRIHIGPGRAFYTTKNIIGAARQAH [MNV3 326/327 Mutant peptide (T326A/I327A)], the binding result is reported as “binds”.

On to TRPNYNKRKRIHIGPGRAFYTTAAIIGTIRQAH [MNV3 321/322 Mutant peptide (K321A/N322A)], for which the binding result was “binds”.

As for TRPNYNKRKRIHIGPGRAFYTTAAIIGAARQAH [MNV3 Quad Mutant peptide (K321A/N322A/T326A/I327A)], the binding result was “binds”.
